From patent US20220259288A1 (LA JOLLA INSTITUTE FOR ALLERGY AND IMMUNOLOGY, published 2022)

T1: HLA-DP DPB1*04:01 (human)
T1 chain 1: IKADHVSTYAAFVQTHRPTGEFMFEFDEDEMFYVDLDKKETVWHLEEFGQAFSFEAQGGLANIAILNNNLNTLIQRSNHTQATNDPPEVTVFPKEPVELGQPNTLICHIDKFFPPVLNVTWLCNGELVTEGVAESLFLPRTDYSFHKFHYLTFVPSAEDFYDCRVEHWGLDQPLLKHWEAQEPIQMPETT
T1 chain 2: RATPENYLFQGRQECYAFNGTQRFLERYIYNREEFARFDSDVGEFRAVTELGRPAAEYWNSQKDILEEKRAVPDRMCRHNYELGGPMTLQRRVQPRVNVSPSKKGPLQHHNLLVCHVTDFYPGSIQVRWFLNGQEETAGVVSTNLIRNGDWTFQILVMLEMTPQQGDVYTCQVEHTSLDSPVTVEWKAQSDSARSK

T2: HLA-DP DPB1*02:01 (human)
T2 chain 1: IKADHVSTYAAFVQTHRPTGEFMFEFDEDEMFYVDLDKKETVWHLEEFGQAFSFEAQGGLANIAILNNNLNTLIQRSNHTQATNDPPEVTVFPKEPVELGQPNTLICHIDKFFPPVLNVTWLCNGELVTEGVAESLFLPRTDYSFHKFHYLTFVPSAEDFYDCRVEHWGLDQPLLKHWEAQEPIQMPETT
T2 chain 2: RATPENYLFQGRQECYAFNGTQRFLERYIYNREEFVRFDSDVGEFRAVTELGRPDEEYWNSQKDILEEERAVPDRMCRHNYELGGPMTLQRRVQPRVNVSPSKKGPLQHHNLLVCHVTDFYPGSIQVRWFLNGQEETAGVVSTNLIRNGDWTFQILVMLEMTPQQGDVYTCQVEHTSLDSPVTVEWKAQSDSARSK


Experiments:
HLA-DP DPB1*04:01 = target: T1, HLA-DP DPB1*04:01; assay: competition assay
HLA-DRB3*01:01 = target: T3, HLA-DRB3*01:01 (human); assay: HLA class II competition binding assay
T3 construct: MHC class II molecule; how it was prepared for the assay is not described

HLA-DP DPB1*14:01 = target: T4, HLA-DP DPB1*14:01 (human); assay: competition assay
T4 construct: its preparation is not described

HLA-DP DPB1*05:01 = target: T5, HLA-DP DPB1*05:01 (human); assay: competition assay
T5 construct: its preparation is not described

HLA-DP DPB1*02:01 = target: T2, HLA-DP DPB1*02:01; assay: competition assay
HLA-DQ DQB1*06:02 = target: T6, HLA-DQ DQB1*06:02 (human); assay: competition assay
T6 construct: its preparation is not described

HLA-DRB4*01:01 = target: T7, HLA-DRB4*01:01 (human); assay: HLA class II competition binding assay
T7 construct: MHC class II molecule; how it was prepared for the assay is not described

HLA-DRB1*13:02 = target: T8, HLA-DRB1*13:02 (human); assay: HLA class II competition binding assay
T8 construct: MHC class II molecule; how it was prepared for the assay is not described

HLA-DRB1*07:01 = target: T9, HLA-DRB1*07:01 (human); assay: HLA class II competition binding assay
T9 construct: MHC class II molecule; how it was prepared for the assay is not described

HLA-DRB1*01:01 = target: T10, HLA-DRB1*01:01 (human); assay: HLA class II competition binding assay
T10 construct: MHC class II molecule; how it was prepared for the assay is not described

HLA-DRB1*12:01 = target: T11, HLA-DRB1*12:01 (human); assay: HLA class II competition binding assay
T11 construct: MHC class II molecule; how it was prepared for the assay is not described

HLA-DRB5*01:01 = target: T12, HLA-DRB5*01:01 (human); assay: HLA class II competition binding assay
T12 construct: MHC class II molecule; how it was prepared for the assay is not described

HLA-DRB1*03:01 = target: T13, HLA-DRB1*03:01 (human); assay: HLA class II competition binding assay
T13 construct: MHC class II molecule; how it was prepared for the assay is not described

HLA-DRB1*15:01 = target: T14, HLA-DRB1*15:01 (human); assay: HLA class II competition binding assay
T14 construct: MHC class II molecule; how it was prepared for the assay is not described

HLA-DRB1*09:01 = target: T15, HLA-DRB1*09:01 (human); assay: HLA class II competition binding assay
T15 construct: MHC class II molecule; how it was prepared for the assay is not described

HLA-DRB3*02:02 = target: T16, HLA-DRB3*02:02 (human); assay: HLA class II competition binding assay
T16 construct: MHC class II molecule; how it was prepared for the assay is not described

HLA-DRB1*04:05 = target: T17, HLA-DRB1*04:05 (human); assay: HLA class II competition binding assay
T17 construct: MHC class II molecule; how it was prepared for the assay is not described

HLA-DRB1*04:01 = target: T18, HLA-DRB1*04:01 (human); assay: HLA class II competition binding assay
T18 construct: MHC class II molecule; how it was prepared for the assay is not described

Binder	IC50 (HLA-DP DPB1*04:01) [nM]	IC50 (HLA-DP DPB1*02:01) [nM]	further results
TLTAFGFASADLIEI [ApoB100 peptide 3563.0005, listing 1 of 2 here]	490	–	–
QELLDIANYLMEQIQ [ApoB100 peptide 3563.0003, listing 1 of 2 here]	–	–	IC50 (HLA-DRB3*01:01): 88 nM
SLFFSAQPFEITAST (also called p18) [ApoB100 peptide 3563.0018]	–	11	IC50 (HLA-DP DPB1*14:01): 126 nM; IC50 (HLA-DP DPB1*05:01): 1480 nM; IC50 (HLA-DQ DQB1*06:02): 895 nM
LIINWLQEALSSASL	–	–	IC50 (HLA-DRB4*01:01): 12 nM; IC50 (HLA-DRB1*13:02): 12 nM
TLTAFGFASADLIEI [ApoB100 peptide 3563.0005, listing 2 of 2 here]	–	–	IC50 (HLA-DRB3*01:01): 99 nM; IC50 (HLA-DRB1*07:01): 33 nM; IC50 (HLA-DRB1*01:01): 60 nM; IC50 (HLA-DRB1*12:01): 27200 nM; IC50 (HLA-DRB5*01:01): 276 nM; IC50 (HLA-DRB1*03:01): 16400 nM; IC50 (HLA-DRB1*15:01): 25 nM; IC50 (HLA-DRB1*09:01): 28 nM; IC50 (HLA-DRB1*13:02): 6.1 nM; IC50 (HLA-DRB3*02:02): 18100 nM
LEVLNFDFQANAQLS (agrees with the claims) [ApoB100 peptide 3563.0017]	191	86	–
RGLKLATALSLSNKF [ApoB100 peptide 3563.0020]	–	–	IC50 (HLA-DRB1*13:02): 1.1 nM
LIINWLQEALSSASL (agrees with the claims)	6190	16300	–
VGSKLIVAMSSWLQK (agrees with the claims)	89	128	–
VGSKLIVAMSSWLQK	–	–	IC50 (HLA-DRB5*01:01): 23 nM
VEFVTNMGIIIPDFA (agrees with the claims) [ApoB100 peptide 3563.0007]	–	12	–
KIVSLIKNLLVALKD [ApoB100 peptide 3563.0028, listing 1 of 2 here]	78	657	–
ILFSYFQDLVITLPF [ApoB100 peptide 3563.0023]	–	–	IC50 (HLA-DRB3*01:01): 71 nM
KIVSLIKNLLVALKD [ApoB100 peptide 3563.0028, listing 2 of 2 here]	–	–	IC50 (HLA-DRB5*01:01): 14 nM
IKHIYAISSAALSAS (also called p9; P9) [ApoB100 peptide 3563.0009]	–	–	IC50 (HLA-DRB1*07:01): 77 nM; IC50 (HLA-DRB1*15:01): 1.1 nM; IC50 (HLA-DRB3*02:02): 3.4 nM
DKRLAAYLMLMRSPS [ApoB100 peptide 3563.0004]	372	1680	–
IDLSIQNYHTFLIYI [ApoB100 peptide 3563.0029]	25000	23200	–
PALLALLALPALLLL (label printed as 3563.001) [ApoB100 peptide 3563.001]	14000	–	–
LSQLQTYMIQFDQYI [ApoB100 peptide 3563.0012, listing 2 of 2 here]	–	–	IC50 (HLA-DRB3*01:01): 1110 nM; IC50 (HLA-DRB1*07:01): 14 nM; IC50 (HLA-DRB1*01:01): 157 nM; IC50 (HLA-DRB1*04:05): 69 nM; IC50 (HLA-DRB1*12:01): 3360 nM; IC50 (HLA-DRB5*01:01): 826 nM; IC50 (HLA-DRB1*03:01): 20500 nM; IC50 (HLA-DRB1*15:01): 1.1 nM; IC50 (HLA-DRB1*09:01): 425 nM; IC50 (HLA-DRB4*01:01): 29 nM; IC50 (HLA-DRB1*04:01): 19 nM; IC50 (HLA-DRB1*13:02): 35 nM; IC50 (HLA-DRB3*02:02): 4660 nM
EGHLRFLKNIILPVY [ApoB100 peptide 3563.0021]	–	61	–
QIHQYIMALREEYFD [ApoB100 peptide 3563.0027]	817	80	–

More lines, main results first:

IC50 (HLA-DP DPB1*04:01) [nM]	IC50 (HLA-DP DPB1*02:01) [nM]	Binder	further results
2.1	3.3	YKKLRTSSFALNLPT [ApoB100 peptide 3563.0022]	–
32	40	FLHYIFMENAFELPT [ApoB100 peptide 3563.0006]	–
2580	1780	QELLDIANYLMEQIQ [ApoB100 peptide 3563.0003, listing 2 of 2 here]	–
–	456	GKIDFLNNYALFLSP [ApoB100 peptide 3563.0019]	–
16	200	QEVFKAIQSLKTTEV [ApoB100 peptide 3563.0024]	–
951	576	LSQLQTYMIQFDQYI [ApoB100 peptide 3563.0012, listing 1 of 2 here]	–
2100	9070	GKLYSILKIQSPLFT [ApoB100 peptide 3563.0016]	–
215	96	FLIYITELLKKLQST [ApoB100 peptide 3563.0030]	–
7	58	HVKHFVINLIGDFEV [ApoB100 peptide 3563.0014]	–
